Measurements published in patent US20240327815A1 (Zymeworks, published 2024).

Experiments:
[1] = target: P.1 (Gamma) SARS-CoV-2 spike protein, plate-coated (MSD) (SARS-CoV-2, UniProt P0DTC2 14-1208); assay: MSD competition vs labelled ACE2
[2] = target: Alpha SARS-CoV-2 spike on pseudotyped lentivirus (SARS-CoV-2, UniProt P0DTC2 14-1273); assay: cell-based or functional assay
[3] = target: Beta SARS-CoV-2 spike on pseudotyped lentivirus (SARS-CoV-2, UniProt P0DTC2 14-1273); assay: cell-based or functional assay

B1: Etesevimab (antibody, V domains shown)
VH: EVQLVESGGGLVQPGGSLRLSCAASGFTVSSNYMSWVRQAPGKGLEWVSVIYSGGSTFYADSVKGRFTISRDNSMNTLFLQMNSLRAEDTAVYYCARVLPMYGDYLDYWGQGTLVTVSS
VL: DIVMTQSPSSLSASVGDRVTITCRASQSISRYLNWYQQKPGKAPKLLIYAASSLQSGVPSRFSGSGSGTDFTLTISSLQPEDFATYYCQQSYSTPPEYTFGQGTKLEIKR
IC50 [1]: 0.08 nM

B2: Bamlanivimab (antibody, V domains shown)
VH: QVQLVQSGAEVKKPGSSVKVSCKASGGTFSNYAISWVRQAPGQGLEWMGRIIPILGIANYAQKFQGRVTITADKSTSTAYMELSSLRSEDTAVYYCARGYYEARHYYYYYAMDVWGQGTAVTVSS
VL: not shown
Pseudovirus Neutralization (IC50, nM) [2]: 1.9 nM | Pseudovirus Neutralization (IC50, nM) [3]: > 100 nM

B3: REGN10987 (Imdevimab) (antibody, V domains shown)
VH: QVQLVESGGGVVQPGRSLRLSCAASGFTFSNYAMYWVRQAPGKGLEWVAVISYDGSNKYYADSVKGRFTISRDNSKNTLYLQMNSLRTEDTAVYYCASGSDYGDYLLVYWGQGTLVTVSS
VL: QSALTQPASVSGSPGQSITISCTGTSSDVGGYNYVSWYQQHPGKAPKLMIYDVSKRPSGVSNRFSGSKSGNTASLTISGLQSEDEADYYCNSLTSISTWVFGGGTKLTVLR
Pseudovirus Neutralization (IC50, nM) [2]: 0.13 nM | Pseudovirus Neutralization (IC50, nM) [3]: 41.1 nM

B4: REGN10933 (Casirivimab) (antibody, V domains shown)
VH: QVQLVESGGGLVKPGGSLRLSCAASGFTFSDYYMSWIRQAPGKGLEWVSYITYSGSTIYYADSVKGRFTISRDNAKSSLYLQMNSLRAEDTAVYYCARDRGTTMVPFDYWGQGTLVTVSS
VL: DIQMTQSPSSLSASVGDRVTITCQASQDITNYLNWYQQKPGKAPKLLIYAASNLETGVPSRFSGSGSGTDFTFTISGLQPEDIATYYCQQYDNLPLTFGGGTKVEIKR
Pseudovirus Neutralization (IC50, nM) [2]: 0.05 nM
